Patent US20080119406A1

Experiments:
[1] = biological target: unidentified caltrin binding site on COS-7 monkey kidney cells (monkey); test: FACS-based binding, anti-caltrin and labelled anti-rabbit antibody
[2] = biological target: unidentified caltrin binding site on ST2 osteoblast-like cells; test: as above
[3] = biological target: unidentified caltrin receptor on primary mouse calvarial osteoblasts (mouse); test: competition curve: unlabelled caltrin against 10 ng 125I-caltrin on primary calvarial osteoblasts, 4 C, 2 h
[4] = biological target: unidentified caltrin receptor on primary mouse calvarial osteoblasts (mouse); test: saturation binding of 125I-caltrin on 2×10^5 primary mouse calvarial osteoblasts, Scatchard analysis

| Binder | shift in the mean fluorescence [1] | shift in the mean fluorescence [2] | Kd [3] | binding sites per cell (Bmax) (binding sites per cell) [3] | Kd [4] | binding sites per cell (binding sites per cell) [4] |
| --- | --- | --- | --- | --- | --- | --- |
| recombinant caltrin (mouse, V5/His-tagged, secreted from baculovirus-infected Sf-9 cells) (ligand, not shown: small tags and cut ends) LICNSCEKSRDSRCTMPQSRCVAKPGESCSTVSHFVGTKHVYSKQMCSPQCKEKQLNTGKKLIYIMCCEKNLCNSF | 80% | 75% | 2.2 nM | 14000 | – | – |
| ^125I-caltrin (radiolabelled recombinant caltrin) (ligand, not shown: small tags and cut ends, 125I label by the lactoperoxidase method; labelled residues not stated) LICNSCEKSRDSRCTMPQSRCVAKPGESCSTVSHFVGTKHVYSKQMCSPQCKEKQLNTGKKLIYIMCCEKNLCNSF | – | – | – | – | 1.2 nM | 60000 |
